Laboratory results: the DeepSol protein solubility set

Experiment: soluble on expression in E. coli; label from the status in PepcDB or PDB records

Sequence: MHHHHHHGGGGGMINKPNQFVNHLSALKKHFASYKELREAFNDYHKHNGDELTTFFLHQFDKVMELVKQKDFKTAQSRCEEELAAPYLPKPLVSFFQSLLQLVNHDLLEQQNAALASLPAAKIIELVLQDYPNKLNMIHYLLPKTKAFVKPHLLQRLQFVLTDSELLELKRFSFFQALNQIPGFQGEQVEYFNSKLKQKFTLTLGEFEIAQQPDAKAYFEQLITQIQQLFLKEPVNAEFANEIIDAFLVSYFPLHPPVPLAQLAAKIYEYVSQIVLNEAVNLKDELIKLIVHTLYEQLDRPVGDEN
- soluble on expression in E. coli: soluble

Sequence: MGSDKIHHHHHHMNEAAKQLYITQPSLSNAVRNLETEMGIQIFIRNPKGITLTKDGMEFLSYARQILEQTALLEERYKGDNTSRELFSVSSQHYAFVVNAFVALFNGTDMTQYELFLRETRTWEIIDDVKNFRSEIGVLFLNSYNRDVLTKLFDDNSLIATTLFTTTPHIFVSKSNPLANRKKLNMKDLEDYPYLSYDQGLHNSFYFSEEMMSQIPHPKSIVVSDRATLFNLMIGLDGYTVATGILNSKLNGDEIVAIPLDVDDVIDIVYIRHDKANLSKMGQKFIDYLLEEVSFNHKNKQS
- soluble on expression in E. coli: not soluble

Sequence: MAHHHHHHMMRLLRNNVKNMFLKNCFLVRNTNVKCWRTDRFHNYNMWNTVENNGIRGFSSSSFEEIKKMNMFTAINSAMHNVFESNPNSVLLGEDVAFGGVFRCSLDLLKKYGNMRVFNTPLCEQGIIGFAIGLAENGFTTIAEIQFGDYIFPAFDQIVNDVAKYRYRSGSSFDVGKLTIRSTWGAVGHGGLYHSQSPEAFFAHAAGIKIIVPSDAYKAKGLLLSAINDPNPCLFFEPKILYRSSVCDVPTGPYQLELGKADVVRQGSDVTIVTWGSLVHKMKNAAEILSKKHNIECEVIDLQSIIPWDIETVQKSVEKTGRLLITHEAQLTNGFGAEIAAKIQERCFYNLHTPIKRVCGYDTPFPHVYEPFYMPDAHKVIYEVKKMMK
- soluble on expression in E. coli: not soluble

Sequence: QQIGLKTNLLYWGTTTPNAGLEFRMGKKWTLDVSGGYNPFTFSHHRKLKHWLVAPELRYWTCEAFSGHFFGLHGIGGEYNVNDIDIPIGRLKKLNNYRYE
- soluble on expression in E. coli: not soluble

Sequence: MKKAYLVWGMAALLSLGVAQQAGGLTLEGVEALRQEARKAYPVGFVDLAPWKRALEAAEALAKQNPNDLRALRLLAEIYTETQWAIRAWEAWMNYREKGGTWDEAARQAAAKVARTLAFYANQRGDRAEAERWAAQAQAVEAGQ
- soluble on expression in E. coli: soluble

Sequence: MAHHHHHHMACDFELPLFAAPCSEVLSTQMSVVDGKMAEKSDKAKRTARASACMIRKGFFSHFPQAILTSPESGIKTAPHPWSNASLMMAADAFSVGLMLRLRLFSIICRNPSPKPTAAGGRFAGYVFCTIPRLSADNCRRTALLKKSWSYKRMPKMAAKYKKRDAVTSISAMVKELSAGMARTDRRNFSLRDTVW
- soluble on expression in E. coli: not soluble

Sequence: MTHPIIHDLENRYTSKKYDPSKKVSQEDLAVLLEALRLSASSINSQPWKFIVIESDAAKQRMHDSFANMHQFNQPHIKACSHVILFANKLSYTRDDYDVVLSKAVADKRITEEQKEAAFASFKFVELNCDENGEHKAWTKPQAYLALGNALHTLARLNIDSTTMEGIDPELLSEIFADELKGYECHVALAIGYHHPSEDYNASLPKSRKAFEDVITIL
- soluble on expression in E. coli: soluble

Sequence: MGSDKIHHHHHHMVKMRALLSGYYGKGNGGDEALLATLLQMLPSHVTPVVLSGNPEETRDRYNVETYDRMAPLAVLQALRSSDALIWGGGSIIQDVTSTISPFYYGGMMALAQKMGLKTVAWAQGIGPLVRPQTRWLARQTFGNCTKVSVRDRASAALLSDWQIPCIIAPDPVWALESKPVPGLWDLPAPRVAVTLRSHPQLTETRLANLTRALVDFQKATQAFILLLPFQKSEDLSIAEAIQPHLKDVSQILCLEDPQLLKGVFRGVEMAIGMRLHSLIMAAAEGCRCFALSYDPKVNRLMEDLEMPGWDLASLPNDPNLISLTWMEHYANGDPLSPDQIQSLVDRALIHRELLSQAFI
- soluble on expression in E. coli: not soluble

Sequence: CSKPETNVVAQDGSTSAAAAQVETQTAESRYLALVDGYFKDYLKLEPIYATFVGVNDYNTQFGGDLTEEYLKARHDLNTRYLAQVKTIDLDELPADLQLSYSLFVYDREMALVDETYPSRFMPISQFYSTVITMVQLGSGESAQPFNTVQDYRNWEQRVNGFIDWIKLAQHRMDEGIASKVVLPRVLVERIIPQLDAMLTTDASQSIFYSPITHFPEGFSAQDKAELTASYQAMISERLVPTLTGLRDYFKQTYLPKSRATDGWSGLPNGKAWYQHLANSHTTTTMPVDEIHQIGLSEVARILSEMDKVREQVGFKGDLKAFFASLSSEPQYFYSDRQGLIDGYMALKDKINLVLPQYFNVMPKADYVVKPVESFREQSAAGASYEAPAVDGSRPGVFYINTYNLKAQPKWGMTTLSLHEAAPGHHFQIAIKQELTGVPEFQRFSGYTAFEEGWALYAEYLGIEMGLFSDPYQYFGKLSDEMLRAMRLVVDTGLHAKGWSREQAIQYMKDNSPMAESDIVAEVERYMAIPGQALSYKVGQLKILALRERAEKALGDKFDLKAFHDQILTSGSLPMAVMEQKIDRWIAANK
- soluble on expression in E. coli: not soluble

Sequence: MGSDKIHHHHHHMSSEAIFEHGYENIDLVREYDARYAGEDVHYETFARLANFFGRDMRPHWHDRYFQLHYLVTGRITLQLDEHFYSVRAPLFVLTPPSVPHTFFTNPDSDGHVLTVRQELIWPLVEKLWPGSGDAAMLQGICLSLEGMEHTLAALNHYWPIISLEFQQNKQGREILLQSLAQSIFTILLREAPPNDISTCSVRGEMCLFQKFNRLIDENYRQHLMVPEYATMLGMSESRLTELCRRFANQSPKRLIFERVSREARRLLLYSEQSINQIALDLGYKDPAYFARFFNRMMGCSPTQFRGR
- soluble on expression in E. coli: not soluble

Sequence: MNLSLHYNLDNRNAMKPHTLVKRSSSQVTDQAVEVIHERIQQGFYPVGSALPSQRELSAELGISRASLREALTRLAALGLLNIMAGKGAYVTAIESQPVEQWNIQFKISLKDFYQLRYILEGFSALLACEYISENDLVQLNTHFEQLESAIQQHNWQEAAENDFAFHRHIIDLSHNQSIIQSLKKQTEWMKQSQILPFVQPNLAYKTIQEHEQILQALIKRDGLMAEKAMRQHIIGAAQRAGVYFSSHS
- soluble on expression in E. coli: not soluble

Sequence: VPGILMCEIFIRANQRSYSVQARSLRLHGVATSVRLEQLFWDVLEEIAARDGMRVTQLIERLYDELVQYRGEAANFTSFLRVCCLRYQVLQAEGRIPADATVPIRSLDAQAVLRGLPANLYDSR
- soluble on expression in E. coli: not soluble

Sequence: KPAAHLIGDPSKQNSLLWRANTDRAFLQDGFSLSNNSLLVPTSGIYFVYSQVVFSGKAYSPKATSSPLYLAHEVQLFSSQYPFHVPLLSSQKMVYPGLQEPWLHSMYHGAAFQLTQGDQLSTHTDGIPHLVLSPSTVFFGAFAL
- soluble on expression in E. coli: soluble

Sequence: QVIEVLNKQVADWSVLFTKLHNFHWYVKGPQFFTLHEKFEELYTESATHIDEIAERILAIGGKPVATMKEYLEISSIQEAAYGETAEGMVEAIMKDYEMMLVELKKGMEIAQNSDDEMTSDLLLGIYTELEKHAWMLRAFLN
- soluble on expression in E. coli: soluble

Sequence: MGHHHHHHSHMTDPLAPEGDNRVWYMDGYHNNRFVREYKSMVDFMNTDNFTSHRLPHPWSGTGQVVYNGSIYFNKFQSHIIIRFDLKTETILKTRSLDYAGYNNMYHYAWGGHSDIDLMVDESGLWAVYATNQNAGNIVVSRLDPVSLQTLQTWNTSYPKRSAGEAFIICGTLYVTNGYSGGTKVHYAYQTNASTYEYIDIPFQNKYSHISMLDYNPKDRALYAWNNGHQILYNVTLFHVIRSDEL
- soluble on expression in E. coli: not soluble

Sequence: MGSDKIHHHHHHVYNEFFHLRTKPFELLPDPDFLYPSKAHRKALAYFEYGLSERSGFILLTGEVGSGKTTLIREMLKRDLGRMVLSKVFNTRVDSTQLVAMINDDFGLETAGRDKMVMLRDLNDFLIDQYAAGRRAVLVIDEAQNLSQELLEEVRMLSNLETDSAKLLQIILVGQPELRDLLRSPALVQLRQRIQVHCHIAPLSQEELREYVLFRLERAGNRDAMEWGEGVFGLMHEATRGIPRLVNILCDYVLLDAYAAGRRSINSAELQDLLAELDFERQFWPVDETSAPAPAAEQQRRTAVRRDASSVARRMMLMLQDLGQRLDVLERGYEKSGPDMLADMAERLGALEKRVTVLAGRVESLHAERMQRGAAPQVQPYRQKPERRKGWFRRVFGGD
- soluble on expression in E. coli: not soluble

Sequence: MPPANGKKGKKGGAAKAAAPEEDFDAILAEMQLADAKTAAKEATKKDAKGGKGKANGSAAATAAPEEAKQAWQAEIAAMKPIDEQFPDGKFPHGIDESPYYLKGKDGRVATDRESNEEKKALDISYEEVWQDYRRSAEAHRQVRKYVKSWIKPGMTMIEICERLETTSRRLIKEQGLEAGLAFPTGCSLNHCAAHYTPNAGDTTVLQYGDVCKIDYGIHVRGRLIDSAFTVHFDPKFDPLVEAVREATNAGIKESGIDVRLCDVGEIVEEVMTSHEVELDGKSYVVKPIRNLNGHSIAQYRIHAGKTVPIVKGGEQTKMEENEIYAIETFGSTGKGYVHDDMETSHYMKNFELADEKIPLRLQKSKGLLNLIDKNFATLAFCRRWIDRLGETKYLMALKDLCDKGIVDPYPPLCDVKGCYTAQWEHTILMRPTVKEVVSRGDDY
- soluble on expression in E. coli: not soluble

Sequence: MKNTLKLPLLIGVAGGTSCGKSTIVERIIENLNANAKQSGRQIDIVHLSLHSFYRELSAEEKILAREGKFNFDHPDQINFDLLAETLQNMIDGKTVEIPKYDMITSSMNGTVTVEPAKVIIIEGILLLYDERVRKLLSTKLFVEKNAESRLRNRLATYIRDYHRAPLSIIRQYTEFVKPAFEEFCRPTKKYADVIIPRGADNHVATDLIAKNLQVRFKRQNNALFDFEL
- soluble on expression in E. coli: not soluble

Sequence: MRTGKAWVWQLRRAAERTRRPFAGDNSPTFTVEHTHRMYPCHVFCNPLIGTIQMKACSRSERREGSKKMEAAKASKPDVSAVYAVDLSQRPVSQGDAAREKAALLQLARRMHEAPGEMLRRFVELAMELTGGISAGISLLEETEPPPVFRWHHLKGILSPFNGATTPRDFSPCGITLDRSAPTLTIHPERVYDWIPPGLFLPEVLLVPLYIGRTEPLGTLWIVADRIEHFHCGHAATMQELAGFIGIALKMVRSEEELQQALEQQELLTREMGHRLKNLFTILDSMVRISARSTDNKDDLVALLSGRLHALAAAHSLVKPSFSDVQGAASSLAELLSIVLEPHEQPAISGKRRLSLTGPTVLCGEQSVNGLALVFHELATNAAKYGSLCGDLGTVDVVWQIDGDDLGITWREDGGAQATSSSPASKGFGSTLVEATVIRQFGGTLSYDWRSTGLSVHIVIPLCRLAQ
- soluble on expression in E. coli: not soluble

Sequence: MGSDKIHHHHHHKDDDNVETGAFDPSKPVAISDFTPKEGGAYQKLLIYGENFGTDVSKVKVKIGGKDAIVINVKSTYVYCFVPSGAFSGEIEITVGEGENAVTTTASTTFSYEKKMVVGTLCGYRNNRDDQGWRDGPFDGPEGVKCCGFSDNGRLAFDPLNKDHLYICYDGHKAIQLIDLKNRMLSSPLNINTIPTNRIRSIAFNKKIEGYADEAEYMIVAIDYDGKGDESPSVYIIKRNADGTFDDRSDIQLIAAYKQCNGATIHPINGELYFNSYEKGQVFRLDLVDYFKTIKNGGSWDPIVKNNPNTFKQLFTIADPSWEFQIFIHPTGKYAYFGVINNHYFMRSDYDEIKKEFITPYNFVGGYKQSGYRDDVGTEARMNNPCQGVFVKNPDYTGEEEYDFYFVDRLNFCVRKVTPEGIVSTYAGRGASTSLADGNQWGTDDGDLREVARFRDVSGLVYDDVKEMFYVHDQVGHTIRTISMEQEENVAGDENIPEDESTVESNE
- soluble on expression in E. coli: not soluble

Sequence: MRGSHHHHHHGSPPAAPITLWTGPGPSINGFINDTPVIRCFICLTRDSNLVTVNASFVGEGGYRIVSPTQSQFSLIMEFDQFGQLMSTGNINSTTTWGEKPWGNNTVQPRPSHTWKLCMPNREVYSTPAATISRCGLDSIAVDGAPSRSIDCMLIINKPKGVATYTLTFRFLNFNRLSGGTLFKTDVLTFTYVGENQ
- soluble on expression in E. coli: soluble
